Patent US20250270315A1

Columns and labels:
[1] = target: cyno SIRPα stably expressed on CHOK1 cells (cyno); experiment: FACS, CHOK1-Cyno SIRPα cells
[2] = target: human SIRPα v2 expressed on cells (CHOK1 stable line KYinno KC-1720) (human) (UniProt P78324); experiment: competitive FACS, mFc-CD47 ECD on CHOK1-human SIRPα v2 cells
[3] = target: human SIRPα v2 expressed on cells (CHOK1 stable line KYinno KC-1720) (human) (UniProt P78324); experiment: FACS, CHOK1-hSIRPα v2 cells
[4] = target: T1, C57BL/6 mouse SIRPα ECD recombinant protein (6×His tagged) (C57BL/6 mouse) (UniProt P97797); experiment: ELISA, C57BL/6 mouse SIRPα ECD
T1 sequence (looked up): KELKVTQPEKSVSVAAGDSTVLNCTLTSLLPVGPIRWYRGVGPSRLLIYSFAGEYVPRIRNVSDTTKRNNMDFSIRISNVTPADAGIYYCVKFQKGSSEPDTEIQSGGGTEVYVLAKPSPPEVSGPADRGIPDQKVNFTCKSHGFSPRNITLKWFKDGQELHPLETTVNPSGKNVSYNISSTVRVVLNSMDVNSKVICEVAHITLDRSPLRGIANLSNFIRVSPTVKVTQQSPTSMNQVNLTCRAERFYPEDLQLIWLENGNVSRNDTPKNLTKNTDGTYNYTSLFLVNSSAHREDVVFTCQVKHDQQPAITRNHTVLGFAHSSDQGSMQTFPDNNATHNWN

B1: hu1H9G4 (antibody, V domains shown)
VH: QVQLVQSGAEVKKPGASVKVSCKASGYTFTSYWITWVKQAPGQGLEWIGDIYPGSGSTNHIEKFKSKATLTVDTSISTAYMELSRLRSDDTAVYYCATGYGSSYGYFDYWGQGTLVTVSS
VL: DIQMTQSPSSLSASVGDRVTITCRASENIYSYLAWYQQKPGKAPKLLIYTAKTLAEGVPSRFSGSGSGTDFTLTISSLQPEDFATYYCQHQYGPPFTFGQGTKLELK
[1]
  EC50: 0.72 nM
  TOP MFI: 14900 MFI
[2]
  IC50: 5.61 nM
  TOP blocking (%): 98.7%
[3]
  EC50: 0.85 nM
  TOP MFI: 18700 MFI
[4]
  OD450 at 100 nM: 0.23 OD450
